Results from article PMC8634136 (The EMBO Journal, 2021).

T1: AND‐1 (human, UniProt O75717 1-1129)
T1 construct: AND-1, human; Only the trimer of SepB domains is ordered in the map; source: Hi5 insect cells (baculovirus), purified (Flag M2, MonoQ, Superdex 200)
T1 sequence: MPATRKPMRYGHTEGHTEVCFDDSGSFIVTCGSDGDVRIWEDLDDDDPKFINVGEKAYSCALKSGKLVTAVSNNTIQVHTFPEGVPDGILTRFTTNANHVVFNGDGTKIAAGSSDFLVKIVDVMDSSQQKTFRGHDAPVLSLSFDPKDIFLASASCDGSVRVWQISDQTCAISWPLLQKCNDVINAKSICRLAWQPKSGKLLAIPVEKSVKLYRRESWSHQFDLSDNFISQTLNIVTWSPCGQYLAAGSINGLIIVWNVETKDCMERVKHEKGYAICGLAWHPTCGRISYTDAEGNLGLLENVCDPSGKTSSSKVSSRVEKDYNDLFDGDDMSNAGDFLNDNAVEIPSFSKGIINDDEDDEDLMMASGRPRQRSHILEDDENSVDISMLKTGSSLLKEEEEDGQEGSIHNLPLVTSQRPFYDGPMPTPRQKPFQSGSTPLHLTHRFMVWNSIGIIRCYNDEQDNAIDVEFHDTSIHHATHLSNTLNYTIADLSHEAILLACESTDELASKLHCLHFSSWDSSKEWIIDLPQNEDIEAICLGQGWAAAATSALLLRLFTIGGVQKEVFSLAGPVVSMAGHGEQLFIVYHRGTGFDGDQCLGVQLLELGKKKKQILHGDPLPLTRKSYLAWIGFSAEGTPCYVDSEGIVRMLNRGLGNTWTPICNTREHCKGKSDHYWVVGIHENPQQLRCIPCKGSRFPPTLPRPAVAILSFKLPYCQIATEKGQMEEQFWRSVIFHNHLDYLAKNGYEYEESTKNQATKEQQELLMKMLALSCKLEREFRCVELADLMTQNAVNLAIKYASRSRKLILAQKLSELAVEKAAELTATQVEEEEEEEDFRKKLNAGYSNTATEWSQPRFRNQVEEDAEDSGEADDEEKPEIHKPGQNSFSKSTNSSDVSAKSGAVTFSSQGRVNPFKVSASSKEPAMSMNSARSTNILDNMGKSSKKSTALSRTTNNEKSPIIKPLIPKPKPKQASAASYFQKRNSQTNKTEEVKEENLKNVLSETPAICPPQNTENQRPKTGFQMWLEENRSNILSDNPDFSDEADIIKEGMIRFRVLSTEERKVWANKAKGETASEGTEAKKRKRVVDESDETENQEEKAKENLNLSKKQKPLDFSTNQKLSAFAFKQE

B1: TIMELESS‐TIPIN heterodimer (complex, human)
chain 1: MDLHMMNCELLATCSALGYLEGDTYHKEPDCLESVKDLIRYLRHEDETRDVRQQLGAAQILQSDLLPILTQHHQDKPLFDAVIRLMVNLTQPALLCFGNLPKEPSFRHHFLQVLTYLQAYKEAFASEKAFGVLSETLYELLQLGWEERQEEDNLLIERILLLVRNILHVPADLDQEKKIDDDASAHDQLLWAIHLSGLDDLLLFLASSSAEEQWSLHVLEIVSLMFRDQNPEQLAGVGQGRLAQERSADFAELEVLRQREMAEKKTRALQRGNRHSRFGGSYIVQGLKSIGERDLIFHKGLHNLRNYSSDLGKQPKKVPKRRQAARELSIQRRSALNVRLFLRDFCSEFLENCYNRLMGSVKDHLLREKAQQHDETYYMWALAFFMAFNRAASFRPGLVSETLSVRTFHFIEQNLTNYYEMMLTDRKEAASWARRMHLALKAYQELLATVNEMDISPDEAVRESSRIIKNNIFYVMEYRELFLALFRKFDERCQPRSFLRDLVETTHLFLKMLERFCRSRGNLVVQNKQKKRRKKKKKVLDQAIVSGNVPSSPEEVEAVWPALAEQLQCCAQNSELSMDSVVPFDAASEVPVEEQRAEAMVRIQDCLLAGQAPQALTLLRSAREVWPEGDVFGSQDISPEEEIQLLKQILSAPLPRQQGPEERGAEEEEEEEEEEEEELQVVQVSEKEFNFLDYLKRFACSTVVRAYVLLLRSYQQNSAHTNHCIVKMLHRLAHDLKMEALLFQLSVFCLFNRLLSDPAAGAYKELVTFAKYILGKFFALAAVNQKAFVELLFWKNTAVVREMTEGYGSLDDRSSSRRAPTWSPEEEAHLRELYLANKDVEGQDVVEAILAHLNTVPRTRKQIIHHLVQMGLADSVKDFQRKGTHIVLWTGDQELELQRLFEEFRDSDDVLGHIMKNITAKRSRARIVDKLLALGLVAERRELYKKRQKKLASSILPNGAESLKDFCQEDLEEEENLPEEDSEEEEEGGSEAEQVQGSLVLSNENLGQSLHQEGFSIPLLWLQNCLIRAADDREEDGCSQAVPLVPLTEENEEAMENEQFQQLLRKLGVRPPASGQETFWRIPAKLSPTQLRRAAASLSQPEEEQKLQPELQPKVPGEQGSDEEHCKEHRAQALRALLLAHKKKAGLASPEEEDAVGKEPLKAAPKKRQLLDSDEEQEEDEGRNRAPELGAPGIQKKKRYQIEDDEDD
chain 2: MLEPQENGVIDLPDYEHVEDETFPPFPPPASPERQDGEGTEPDEESGNGAPVRVPPKRTVKRNIPKLDAQRLISERGLPALRHVFDKAKFKGKGHEAEDLKMLIRHMEHWAHRLFPKLQFEDFIDRVEYLGSKKEVQTCLKRIRLDLPILHEDFVSNNDEVAENNEHDVTSTELDPFLTNLSESEMFASELSRSLTEEQQQRIERNKQLALERRQAKLLSNSQTLGNDMLMNTPRAHTVEEVNTDEDQKEESNGLNEDILDNPCNDAIANTLNEEETLLDQSFKNVQQQLDATSRNITEAR
notes: TIPIN, human; no cleavage is described in the purification; source: Hi5 insect cells (baculovirus), purified (Strep-Tactin XT, HiTrap Q, Superdex 200)
B2: CDC45 (natural protein, human, UniProt O75419 1-566, looked up)
chain: MFVSDFRKEFYEVVQSQRVLLFVASDVDALCACKILQALFQCDHVQYTLVPVSGWQELETAFLEHKEQFHYFILINCGANVDLLDILQPDEDTIFFVCDTHRPVNVVNVYNDTQIKLLIKQDDDLEVPAYEDIFRDEEEDEEHSGNDSDGSEPSEKRTRLEEEIVEQTMRRRQRREWEARRRDILFDYEQYEYHGTSSAMVMFELAWMLSKDLNDMLWWAIVGLTDQWVQDKITQMKYVTDVGVLQRHVSRHNHRNEDEENTLSVDCTRISFEYDLRLVLYQHWSLHDSLCNTSYTAARFKLWSVHGQKRLQEFLADMGLPLKQVKQKFQAMDISLKENLREMIEESANKFGMKDMRVQTFSIHFGFKHKFLASDVVFATMSLMESPEKDGSGTDHFIQALDSLSRSNLDKLYHGLELAKKQLRATQQTIASCLCTNLVISQGPFLYCSLMEGTPDVMLFSRPASLSLLSKHLLKSFVCSTKNRRCKLLPLVMAAPLSMEHGTVTVVGIPPETDSSDRKNFFGRAFEKAAESTSSRMLHNHFDLSVIELKAEDRSKFLDALISLLS
notes: CDC45, human; Stood in the structure as a subunit of m1; source: Hi5 insect cells, purified as a subunit of hsCMG
B3: PSF2 (natural protein, human)
chain: MDAAEVEFLAEKELVTIIPNFSLDKIYLIGGDLGPFNPGLPVEVPLWLAINLKQRQKCRLLPPEWMDVEKLEKMRDHERKEETFTPMPSPYYMELTKLLLNHASDNIPKADEIRTLVKDMWDTRIAKLRVSADSFVRQQEAHAKLDNLTLMEINTSGTFLTQALNHMYKLRTNLQPLESTQSQDF
notes: PSF2 (GINS subunit), human; Stood in the structure as a subunit of m1; also called PSF2 subunit of GINS; source: Hi5 insect cells, purified as a subunit of hsCMG
B4: MCM5 (natural protein, human)
chain: MSGFDDPGIFYSDSFGGDAQADEGQARKSQLQRRFKEFLRQYRVGTDRTGFTFKYRDELKRHYNLGEYWIEVEMEDLASFDEDLADYLYKQPAEHLQLLEEAAKEVADEVTRPRPSGEEVLQDIQVMLKSDASPSSIRSLKSDMMSHLVKIPGIIIAASAVRAKATRISIQCRSCRNTLTNIAMRPGLEGYALPRKCNTDQAGRPKCPLDPYFIMPDKCKCVDFQTLKLQELPDAVPHGEMPRHMQLYCDRYLCDKVVPGNRVTIMGIYSIKKFGLTTSRGRDRVGVGIRSSYIRVLGIQVDTDGSGRSFAGAVSPQEEEEFRRLAALPNVYEVISKSIAPSIFGGTDMKKAIACLLFGGSRKRLPDGLTRRGDINLLMLGDPGTAKSQLLKFVEKCSPIGVYTSGKGSSAAGLTASVMRDPSSRNFIMEGGAMVLADGGVVCIDEFDKMREDDRVAIHEAMEQQTISIAKAGITTTLNSRCSVLAAANSVFGRWDETKGEDNIDFMPTILSRFDMIFIVKDEHNEERDVMLAKHVITLHVSALTQTQAVEGEIDLAKLKKFIAYCRVKCGPRLSAEAAEKLKNRYIIMRSGARQHERDSDRRSSIPITVRQLEAIVRIAEALSKMKLQPFATEADVEEALRLFQVSTLDAALSGTLSGVEGFTSQEDQEMLSRIEKQLKRRFAIGSQVSEHSIIKDFTKQKYPEHAIHKVLQLMLRRGEIQHRMQRKVLYRLK
notes: MCM5, human; Stood in the structure as a subunit of m1; source: Hi5 insect cells, purified as a subunit of hsCMG

Experiments:
Settings in all cases: both partners purified
[1] = target: T2, human CDC45‐MCM‐GINS (CMG) helicase (human, UniProt P49736 1-904; P25205 1-808; P33991 1-863; P33992 1-734; Q14566 1-821; P33993 …); assay: co-sedimentation; native glycerol gradient without cross-linker (40 mM HEPES-NaOH pH 7.5, 150 mM NaOAc, 0.5 mM TCEP, 500 µM AMP-PNP, 3 mM Mg(OAc)2), 200,000 g, 4°C, 2 h; 100 nM CMG pre-incubated with fork DNA, 1.5-fold molar excess of the other proteins; fractions on silver-stained SDS-PAGE
T2 construct: MCM2, human; MCM3, human; the construct lacks the 45 additional N-terminal amino acids of the longer isoform used in PDB 6XTX; MCM4, human; MCM5, human; MCM6, human; MCM7, human; CDC45, human; PSF1 (GINS subunit), human; PSF2 (GINS subunit), human; PSF3 (GINS subunit), human; SLD5 (GINS subunit), human; also called hsCMG; source: Hi5 insect cells co-infected with baculoviruses for MCM2-7, GINS …

[2] = target: T3, POLE1 (human, UniProt Q07864 1-2286); assay: cryo-EM structure; replisome reconstituted on fork DNA with AMP-PNP, isolated on a glycerol gradient with glutaraldehyde and BS3; 3.2 Å overall; a sample without CLASPIN solved at 3.4 Å
T3 construct: POLE1, catalytic subunit of Pol ε, human; Stood in the structure as a subunit of m2; residues 1,371-2,280 modelled; also called POLE1 catalytic subunit; POLE1^nonCat (the modelled C-terminal non-catalytic domain); source: Hi5 insect cells, purified as a subunit of Pol ε
T3 sequence (Q07864 whole entry, the tested form may be a part): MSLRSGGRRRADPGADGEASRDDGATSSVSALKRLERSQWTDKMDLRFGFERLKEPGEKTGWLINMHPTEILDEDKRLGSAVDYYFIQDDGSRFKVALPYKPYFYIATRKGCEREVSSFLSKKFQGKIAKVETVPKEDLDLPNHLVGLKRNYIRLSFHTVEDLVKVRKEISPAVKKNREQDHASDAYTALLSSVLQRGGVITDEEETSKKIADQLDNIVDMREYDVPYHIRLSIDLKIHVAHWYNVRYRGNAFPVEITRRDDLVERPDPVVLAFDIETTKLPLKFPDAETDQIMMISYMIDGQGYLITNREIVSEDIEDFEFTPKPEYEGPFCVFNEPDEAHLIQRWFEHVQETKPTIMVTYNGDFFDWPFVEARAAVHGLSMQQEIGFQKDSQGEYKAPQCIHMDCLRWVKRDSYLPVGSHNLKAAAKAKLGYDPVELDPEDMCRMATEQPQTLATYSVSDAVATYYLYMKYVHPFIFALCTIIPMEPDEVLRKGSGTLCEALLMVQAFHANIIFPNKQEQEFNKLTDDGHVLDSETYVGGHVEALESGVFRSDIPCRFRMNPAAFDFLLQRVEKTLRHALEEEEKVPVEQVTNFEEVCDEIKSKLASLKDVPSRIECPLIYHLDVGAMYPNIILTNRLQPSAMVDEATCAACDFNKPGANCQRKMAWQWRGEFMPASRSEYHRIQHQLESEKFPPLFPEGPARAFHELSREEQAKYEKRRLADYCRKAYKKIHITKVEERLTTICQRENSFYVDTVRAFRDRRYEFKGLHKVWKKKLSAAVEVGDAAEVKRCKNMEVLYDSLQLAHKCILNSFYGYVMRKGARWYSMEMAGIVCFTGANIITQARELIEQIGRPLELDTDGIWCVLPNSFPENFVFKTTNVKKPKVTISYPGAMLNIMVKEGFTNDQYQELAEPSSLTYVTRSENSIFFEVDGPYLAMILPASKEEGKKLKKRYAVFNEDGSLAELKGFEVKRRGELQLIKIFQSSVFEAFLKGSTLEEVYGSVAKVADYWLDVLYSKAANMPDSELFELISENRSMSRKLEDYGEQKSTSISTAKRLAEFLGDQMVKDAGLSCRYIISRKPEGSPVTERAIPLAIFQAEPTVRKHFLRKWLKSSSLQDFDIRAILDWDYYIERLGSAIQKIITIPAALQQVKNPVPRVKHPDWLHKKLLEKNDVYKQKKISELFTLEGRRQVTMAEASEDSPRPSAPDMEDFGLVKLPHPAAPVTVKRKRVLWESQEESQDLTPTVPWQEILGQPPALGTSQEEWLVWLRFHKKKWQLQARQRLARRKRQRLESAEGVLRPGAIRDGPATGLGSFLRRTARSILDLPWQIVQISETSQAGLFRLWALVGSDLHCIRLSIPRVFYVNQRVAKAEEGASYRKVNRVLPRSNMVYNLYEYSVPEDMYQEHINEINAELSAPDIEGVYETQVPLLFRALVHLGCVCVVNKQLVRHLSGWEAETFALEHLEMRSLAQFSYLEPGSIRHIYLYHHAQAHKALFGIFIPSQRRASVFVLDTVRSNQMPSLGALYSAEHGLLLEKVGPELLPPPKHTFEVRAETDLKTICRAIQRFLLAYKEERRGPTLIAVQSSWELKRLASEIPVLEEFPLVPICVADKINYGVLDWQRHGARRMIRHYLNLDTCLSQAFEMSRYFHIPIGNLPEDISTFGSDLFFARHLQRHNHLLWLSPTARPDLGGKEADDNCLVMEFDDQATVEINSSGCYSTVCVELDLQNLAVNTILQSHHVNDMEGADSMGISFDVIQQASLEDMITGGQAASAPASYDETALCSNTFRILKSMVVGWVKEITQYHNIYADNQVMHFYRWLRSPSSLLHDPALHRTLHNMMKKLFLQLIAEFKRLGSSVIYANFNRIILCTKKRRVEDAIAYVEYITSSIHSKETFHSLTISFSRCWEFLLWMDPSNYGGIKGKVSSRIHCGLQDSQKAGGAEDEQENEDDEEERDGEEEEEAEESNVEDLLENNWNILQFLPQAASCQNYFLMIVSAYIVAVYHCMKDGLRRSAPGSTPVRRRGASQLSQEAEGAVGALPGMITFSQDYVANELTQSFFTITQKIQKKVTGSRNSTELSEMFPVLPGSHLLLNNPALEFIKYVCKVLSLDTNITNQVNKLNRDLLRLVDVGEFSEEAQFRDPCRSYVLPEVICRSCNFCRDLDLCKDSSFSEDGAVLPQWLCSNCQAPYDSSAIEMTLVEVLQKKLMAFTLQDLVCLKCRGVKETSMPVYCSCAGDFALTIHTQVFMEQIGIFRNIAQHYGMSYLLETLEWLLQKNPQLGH

[3] = target: T1, AND‐1; assay: as above

Binder	binding result [1]	binding result [2]	binding result [3]
B1	binds		
B2		binds	binds
B3			binds
B4		binds	
